Reference: US9957308B2, “Method for detecting bilirubin using a fluorescent protein” (RIKEN, priority 2013, dated 2018)

How the values were obtained:
Escherichia coli cells = experiment: Expression of recombinant UnaG protein in Escherichia coli, fluorescence observation; type: cell-based; details: blue light, UV transilluminator
Source text: A DNA fragment including the sequence of full-length UnaG gene prepared above was ligated to the restriction enzyme sites, BamHI and EcoRI, of Escherichia coli expression vector […] (GE Healthcare) including a GST-tag sequence that can express the GST-fused protein in Escherichia coli and transformed into Escherichia coli strain DH5α for subcloning. Thus, a UnaG (apo form) expression vector (pGEX-2T-UnaG) for Escherichia coli was constructed.
The constructed expression vector (pGEX-2T-UnaG) was transformed into Escherichia coli strain BL21 (DE3). The transformant was cultured on a plate of an LB solid medium to obtain colonies. The resulting colonies were inoculated in 40 mL of an LB liquid medium and were cultured overnight at 37° C. Here, a glycerol stock of the resulting Escherichia coli solution was produced, and this glycerol stock was used as the recombinant (vector) for Escherichia coli expression in the experiments described below. The LB medium was scaled up to 400 mL using the culture solution, followed by culturing at 37° C. for 1 hr (A600≈1.0). […]
(§1) FIG. 1 includes diagrams showing expression of recombinant UnaG protein in Escherichia coli and mammalian cells. […] The diagram (c) includes a differential interference image and a fluorescence image by observation of mammalian cell HEK293T expressing recombinant UnaG protein under a fluorescence microscope. […]

mammalian cell HEK293T = experiment: Expression of recombinant UnaG protein in mammalian cells, fluorescence microscopy; type: cell-based; details: fluorescence microscope
Source text: DNA to be inserted to an expression vector for mammalian cell was amplified by PCR using full-length cDNA of the UnaG gene of SEQ ID NO: 2 as template DNA, a sense primer (SEQ ID NO: 24), and an antisense primer (SEQ ID NO: 25). A FLAG-tag sequence (SEQ ID NO: 26) was inserted into the KpnI restriction enzyme site and the BamHI restriction enzyme site of expression vector pcDNA3 (Invitrogen) for mammalian cell, and the amplified DNA fragment was ligated to the BamHI restriction enzyme site and the EcoRI restriction enzyme site of the resulting pcDNA3-FLAG vector and transformed into Escherichia coli strain DH5α for cloning. The vector was extracted from Escherichia coli and was purified. The sequence was confirmed by DNA sequence analysis. Thus, a UnaG expression vector (pcDNA3-FLAG-UnaG) for mammalian cells was constructed. […]
After the expression of protein, the medium was removed from each dish, and the cells were rinsed with PBS. […] The purified FLAG-UnaG protein (holo form) was irradiated with a UV transilluminator for verifying whether fluorescence was present or not. […]
as §1

apo UnaG protein = target: T1, apo UnaG protein (Anguilla japonica, UniProt P0DM59); experiment: Reconstruction of apo UnaG protein using bilirubin or bilirubin analog, fluorescence intensity; type: binding, Japanese eel (Anguilla japonica); details: 0.5 μM apo UnaG, ligand 0.125-2.0 μM, 30 min room temperature, excitation 497 nm / emission 527 nm
T1 construct: GST (N, cleaved yes); made in house; host or cells: Escherichia coli BL21 (DE3)
Protocol: Bilirubin or a bilirubin analog, biliverdin (Toronto Research Chemicals), urobilin (MP Biomedicals), or ditaurobilirubin (Frontier Scientific), was diluted with PBS such that the final concentration was 0.125 μM, 0.25 μM, 0.5 μM, 1.0 μM, or 2.0 μM and was mixed with 0.5 μM apo UnaG protein. The mixture was left to stand at room temperature for 30 min. Subsequently, 200 μL of the mixture was added to each well of a 96 well microplate (Greiner Bio-One) and was subjected to measurement of the fluorescence intensity at a wavelength of 527 nm with excitation light having a wavelength of 497 nm using EnSpire multi-mode plate reader (PerkinElmer Co., Ltd.).

B1: UnaG: fluorescent polypeptide including the amino acid sequence of SEQ ID NO: 1, originally isolated from Japanese eel; fluoresces in the presence of bilirubin (protein, listed as Anguilla japonica)
chain: MVEKFVGTWKIADSHNFGEYLKAIGAPKELSDGGDATTPTLYISQKDGDKMTVKIENGPPTFLDTQVKFKLGEEFDEFPSDRRKGVKSVVNLVGEKLVYVQKWDGKETTYVREIKDGKLVVTLTMGDVVAVRSYRRATE
Which results are given for B1?
fluorescence of expressed protein in cells (Escherichia coli cells): did not emit fluorescence; fluorescence of expressed protein in cells (mammalian cell HEK293T): emitted fluorescence; fluorescence of UnaG on addition of ligand (specificity) (apo UnaG protein): specific to bilirubin
